Test results from US20120237978A1.

Target: β2AR part of the β2AR-Gs peptide fusion construct (receptor truncated at position 365) (human) (UniProt P07550)
Assay: cell-based or functional assay

last 21 amino acids of the Gαs subunit (amino acids 374-394, except for C379A), as fused in the β2AR-Gs peptide fusion construct
agonist affinity ([3H]-DHA competition binding with isoproterenol, Sf9 membranes): 27 fold | effect on agonist binding affinity compared with the β2AR-Gs complex: 3.5 fold | fraction of β2AR in the Ki high state ([3H]-DHA / isoproterenol competition, Sf9 membranes): 0.68
